Paper PMC9258321 (2022)
Read-outs that look alike come from different tables or passages of the source. Ends that are not written are not given here.

B1: drp3, minor oxidized product (peptide)
chain: GCPPCASGCSPETGEFCWREDDCPPC
modifications: disulfide (positions not given here); also: oxidized (disulfides), pairing of this isomer not given here

How the values were obtained:
[1] = biological target: Kelch domain of Keap1; test: SPR
[2] = biological target: Kelch domain of Keap1; test: SPR; remark: listed apart in the source

Kelch domain of Keap1, sequence (chain, as listed by the source): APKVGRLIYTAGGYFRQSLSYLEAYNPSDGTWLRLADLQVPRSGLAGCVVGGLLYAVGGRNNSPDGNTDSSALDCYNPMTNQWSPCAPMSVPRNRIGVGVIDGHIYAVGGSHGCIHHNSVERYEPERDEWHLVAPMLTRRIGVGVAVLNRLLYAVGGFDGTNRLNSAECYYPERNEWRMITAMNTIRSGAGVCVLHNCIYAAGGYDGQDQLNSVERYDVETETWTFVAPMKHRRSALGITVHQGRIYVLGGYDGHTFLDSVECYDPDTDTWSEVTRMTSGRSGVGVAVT

| Binder | Kd [1] [nM] | Kd [2] [nM] |
| --- | --- | --- |
| GCPPCASGCSPETGEFCWREDDCPPC (disulfide (positions not given here); not fully specified) [drp3-a] | 277 |  |
| B1 |  | 415 |
